Measurements from IntAct's records for PubMed 31515488.

B1: Ribose-phosphate pyrophosphokinase 1 (Homo sapiens), P60891 (parent)
chain: MPNIKIFSGSSHQDLSQKIADRLGLELGKVVTKKFSNQETCVEIGESVRGEDVYIVQSGCGEINDNLMELLIMINACKIASASRVTAVIPCFPYARQDKKDKSRAPISAKLVANMLSVAGADHIITMDLHASQIQGFFDIPVDNLYAEPAVLKWIRENISEWRNCTIVSPDAGGAKRVTSIADRLNVDFALIHKERKKANEVDRMVLVGDVKDRVAILVDDMADTCGTICHAADKLLSAGATRVYAILTHGIFSGPAISRINNACFEAVVVTNTIPQEDKMKHCSKIQVIDISMILAEAIRRTHNGESVSYLFSHVPL
partner: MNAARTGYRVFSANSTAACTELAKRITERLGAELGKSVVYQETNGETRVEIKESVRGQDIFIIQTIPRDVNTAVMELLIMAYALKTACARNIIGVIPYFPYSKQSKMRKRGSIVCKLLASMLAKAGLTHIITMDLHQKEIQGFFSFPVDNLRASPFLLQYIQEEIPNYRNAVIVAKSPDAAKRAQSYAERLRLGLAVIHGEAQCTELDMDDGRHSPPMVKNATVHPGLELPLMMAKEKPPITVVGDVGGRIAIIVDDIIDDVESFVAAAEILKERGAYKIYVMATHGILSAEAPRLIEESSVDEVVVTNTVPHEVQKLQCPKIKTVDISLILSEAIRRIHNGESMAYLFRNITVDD
B2: Coiled-coil domain-containing protein 33 (Homo sapiens), Q8N5R6-5 (parent)
chain: MGEPGPPSPPAPKAAPGLIDSFSEMNNYRRAMQKMAEDILSLRRQASILEGENRILRSRLAQQEEEEGQGKASEAQNTVSMKQKLLLSELDMKKLRDRVQHLQNELIRKNDREKELLLLYQAQQPQAALLKQYQGKLQKMKALEETVRHQEKVIEKMERVLEDRLQDRSKPPPLNRQQGKPYTGFPMLSASGLPLGSMGENLPVELYSVLLAENAKLRTELDKNRHQQAPIILQQQALPVDPGELGAGGDLTERLQETHGPGHSECTETLPAQDLLSGTSDKFNLLAKLEHAQSRILSLESQLEDSARRWGREKQDLATRLQEQEKGFRHPSNSIIIEQPVSDPPGVAPRGSGGGAGSHRTPKVTGP
partner: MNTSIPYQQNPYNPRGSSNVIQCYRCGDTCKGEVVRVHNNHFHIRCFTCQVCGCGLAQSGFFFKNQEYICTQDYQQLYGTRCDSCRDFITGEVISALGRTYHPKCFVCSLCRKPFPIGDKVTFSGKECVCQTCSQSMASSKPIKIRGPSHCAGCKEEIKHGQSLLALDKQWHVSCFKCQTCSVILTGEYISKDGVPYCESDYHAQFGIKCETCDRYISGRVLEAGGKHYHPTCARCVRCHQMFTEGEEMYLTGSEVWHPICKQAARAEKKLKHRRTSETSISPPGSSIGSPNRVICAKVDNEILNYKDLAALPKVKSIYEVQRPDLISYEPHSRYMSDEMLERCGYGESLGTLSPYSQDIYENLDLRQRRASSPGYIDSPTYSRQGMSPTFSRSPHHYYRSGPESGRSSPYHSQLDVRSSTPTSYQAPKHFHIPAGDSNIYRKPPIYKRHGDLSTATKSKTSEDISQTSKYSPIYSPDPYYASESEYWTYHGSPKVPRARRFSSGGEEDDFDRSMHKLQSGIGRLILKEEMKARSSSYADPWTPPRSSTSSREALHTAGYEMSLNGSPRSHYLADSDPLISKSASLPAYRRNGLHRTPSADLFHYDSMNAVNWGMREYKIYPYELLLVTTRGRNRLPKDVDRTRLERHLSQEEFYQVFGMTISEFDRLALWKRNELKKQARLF
B3: Four and a half LIM domains protein 2 (Homo sapiens), Q14192 (parent)
chain: MTERFDCHHCNESLFGKKYILREESPYCVVCFETLFANTCEECGKPIGCDCKDLSYKDRHWHEACFHCSQCRNSLVDKPFAAKEDQLLCTDCYSNEYSSKCQECKKTIMPGTRKMEYKGSSWHETCFICHRCQQPIGTKSFIPKDNQNFCVPCYEKQHAMQCVQCKKPITTGGVTYREQPWHKECFVCTACRKQLSGQRFTARDDFAYCLNCFCDLYAKKCAGCTNPISGLGGTKYISFEERQWHNDCFNCKKCSLSLVGRGFLTERDDILCPDCGKDI
partner: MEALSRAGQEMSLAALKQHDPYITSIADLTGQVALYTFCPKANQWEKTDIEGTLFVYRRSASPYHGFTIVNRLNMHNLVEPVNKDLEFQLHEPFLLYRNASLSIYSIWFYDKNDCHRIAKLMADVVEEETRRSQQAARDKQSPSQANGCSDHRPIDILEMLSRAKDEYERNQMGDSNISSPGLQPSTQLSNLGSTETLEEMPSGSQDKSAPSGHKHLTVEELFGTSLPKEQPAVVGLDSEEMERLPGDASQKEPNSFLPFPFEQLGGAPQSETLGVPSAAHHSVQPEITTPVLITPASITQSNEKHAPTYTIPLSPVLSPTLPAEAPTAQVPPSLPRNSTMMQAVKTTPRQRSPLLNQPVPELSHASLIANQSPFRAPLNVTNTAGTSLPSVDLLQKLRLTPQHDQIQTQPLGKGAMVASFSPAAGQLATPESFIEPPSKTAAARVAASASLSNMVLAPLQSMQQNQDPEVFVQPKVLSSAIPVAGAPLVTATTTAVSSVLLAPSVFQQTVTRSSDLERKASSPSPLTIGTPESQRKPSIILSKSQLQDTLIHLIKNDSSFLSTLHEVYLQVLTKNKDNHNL
B4: Synaptotagmin-like protein 5 (Homo sapiens), Q8TDW5 (parent)
chain: MSKNSEFINLSFLLDHEKEMILGVLKRDEYLKKVEDKRIRKLKNELLEAKRRSGKTQQEASRVCVHCHRNLGLIFDRGDPCQACSLRVCRECRVAGPNGSWKCTVCDKIAQLRIITGEWFFEEKAKRFKQVNVLGTDVVRQSILRRSPGAEEVQSQEQTRQDAEKSDTSPVAGKKASHDGPKRKGFLLSKFRSATRGEIITPKTDTGRSYSLDLDGQHFRSLKSPPGSDRGSTGSSDLNDQEPGPRTPKSSRSNGVTPGTQSSPAPSTRTVTSVISREYGFENSMDLAAIEGTSQELTKSHRRNTSGTPSIAVSGTSLSSDQSRSELDLSESFTEDSEDTVSIRSKSVPGALDKDSLEETEESIDALVSSQLSTNTHRLASGLSTTSLNSMMSVYSETGDYGNVKVSGEILLHISYCYKTGGLYIFVKNCRNLAIGDEKKQRTDAYVKSYLLPDKSRNNKRKTKIRTGTNPEFNETLKYTISHTQLETRTLQLSVWHYDRFGRNSFLGEVEIPFDSWNFENPTDEWFVLQPKVEFAPDIGLQYKGELTVVLRYIPPEENLMLPPEQLQGNKTFKKGKKKESPVISGGILEVFIKEAKNLTAVKSGGTSDSFVKGYLLPDDSKATKHKTLVIKKSVNPQWNHTFMFSGIHPQDIKNVCLELTIWDKEAFSSNIFLGGVRLNSGSGVSHGKNVDWMDSQGEEQRLWQKMANNPGTPFEGVLMLRSSMGKCRL

Variants of: B1
Details: with kpra_human PRPSAP1, Q14558

Variant	effect of a mutation on the interaction
E43D	with no effect
D183H	with no effect

Variants of: B1
Details: with kpra_human PRPSAP1, Q14558
Remark: another data set of the same source

Variant	effect of a mutation on the interaction
D203H	with no effect

Variants of: B2
Details: with ablm3_human ABLIM3, O94929

Variant	effect of a mutation on the interaction
P203L	disrupting interaction strength
M25V	with no effect
G196R	with no effect
R30L	with no effect

Variants of: B3
Details: with dcp1a_human DCP1A

Variant	effect of a mutation on the interaction
N95K	with no effect
A37S	with no effect

Variants of: B4
Details: with cep70_human CEP70, Q8NHQ1
cep70_human CEP70, Q8NHQ1, sequence (Q8NHQ1 whole entry): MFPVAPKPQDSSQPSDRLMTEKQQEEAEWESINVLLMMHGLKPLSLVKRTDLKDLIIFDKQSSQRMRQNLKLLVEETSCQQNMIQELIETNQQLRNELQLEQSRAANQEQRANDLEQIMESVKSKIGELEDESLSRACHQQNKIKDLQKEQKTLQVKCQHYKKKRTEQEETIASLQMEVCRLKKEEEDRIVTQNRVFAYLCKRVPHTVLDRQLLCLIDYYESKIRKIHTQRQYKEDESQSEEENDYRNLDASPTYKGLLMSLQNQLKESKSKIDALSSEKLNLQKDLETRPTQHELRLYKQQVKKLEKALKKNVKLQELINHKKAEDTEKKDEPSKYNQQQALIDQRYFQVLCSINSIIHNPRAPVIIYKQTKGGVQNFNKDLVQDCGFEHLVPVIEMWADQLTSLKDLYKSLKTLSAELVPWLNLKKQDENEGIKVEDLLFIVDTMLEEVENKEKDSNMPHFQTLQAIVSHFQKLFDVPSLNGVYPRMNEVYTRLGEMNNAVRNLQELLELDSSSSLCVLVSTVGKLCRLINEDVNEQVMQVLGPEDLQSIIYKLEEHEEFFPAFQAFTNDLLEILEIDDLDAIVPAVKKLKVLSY

Variant	effect of a mutation on the interaction
D400N	with no effect
S369P	with no effect
